The target of assay [1] is molybdenum-iron protein (MoFeP) of Gluconacetobacter diazotrophicus Mo-nitrogenase (Gluconacetobacter diazotrophicus).
The target is the same in assay [2]. This is another data set of the same source.

1 molecule from publication PMC8047169 can be followed below.

B1: His-CowN (Gluconacetobacter diazotrophicus CowN, His-tagged, refolded, monomeric fraction) (natural protein)
chain: MTEQIDRYVSFRNVEWERRTAEVFALLQPHFDGSTSPFWDYFLRQRVIAHAQGLDDLRVLHNFLPTLKDLLEELDDERTLSRLEELEVLCM
The molecule B1 had a nitrogenase C2H2 reduction activity under 0.1 atm CO with 2 μM CowN against no CowN (0.2 μM MoFeP, 2 μM FeP) in assay [1] of 9 fold. Moreover, in assay [2], the KD^app from a hyperbolic fit of nitrogenase C2H2 reduction activity against CowN concentration under 0.001 atm CO (MoFeP with FeP, turnover conditions) was found to be 400 nM and the KD^app from a hyperbolic fit of nitrogenase C2H2 reduction activity against CowN concentration under 0.1 atm CO (MoFeP with FeP, turnover conditions) came out at 1080 nM.
